From US20070020688A1, “Measurement method using biosensor” (FUJI PHOTO FILM CO., LTD., priority 2005, published 2007)

How the values were obtained:
[1] = biological target: T1, trypsin (Bos taurus, UniProt P00760); assay: Compound binding amount on trypsin-immobilized hydrogel-coated chip by surface plasmon resonance; conditions: for Compound binding amount (RU): compound 0.01 mM, 3 minutes
T1 construct: purchased Worthington
T1 sequence (P00760 24-246): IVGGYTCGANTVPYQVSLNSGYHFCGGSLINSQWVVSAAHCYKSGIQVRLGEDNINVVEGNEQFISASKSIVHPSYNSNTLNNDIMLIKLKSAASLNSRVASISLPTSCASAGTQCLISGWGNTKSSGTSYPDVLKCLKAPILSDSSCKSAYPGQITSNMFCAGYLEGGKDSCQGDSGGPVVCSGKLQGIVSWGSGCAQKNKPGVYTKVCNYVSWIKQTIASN
Experimental: Trypsin (manufactured by Worthington) was immobilized on the hydrogel-coated measurement chip produced in (2) above. Measurement was carried out using the surface plasmon resonance measurement device described in (1) above.
A mixed solution of 1-ethyl-2,3-dimethylaminopropylcarbodiimide (400 mM) and N-hydroxysuccinimide (100 mM) was added to a hydrogel-coated chip, followed by leaving at rest for 20 minutes. Thereafter, the resultant product was washed with a 10 mM phosphate buffer. Subsequently, the aforementioned trypsin solution was added thereto, followed by leaving at rest for the period of time shown in Table 1. Thereafter, the resultant product was subjected to a primary washing with a 10 mM phosphate buffer, and then subjected to a secondary washing with the washing solution shown in Table 1. Thereafter, the resultant product was further washed with a 10 mM phosphate buffer. It is to be noted that it has been known that if such a secondary washing is carried out with 10 mM NaOH, non-specifically adsorbed proteins are washed out, and a baseline drift thereby becomes stable during interaction measurement.
By the aforementioned operations, trypsin was immobilized on the surface of the measurement chip via a covalent bond. The amount by which resonance signals (RU value) obtained before the addition of trypsin and after washing had changed was defined as the immobilized amount of trypsin (RU value).
The measurement chip was washed with a 10 mM phosphate buffer, and it was then equipped in the surface plasmon resonance device of the present example. Thereafter, leupeptin (0.01 mM; phosphate buffer pH 7.4), the following kinase inhibitor, and an amphipathic compound (0.01 mM; phosphate buffer pH 7.4) were added thereto, followed by leaving at rest for 3 minutes. The amount by which resonance signals (RU value) had changed was defined as the binding amount of the compound.

[2] = biological target: T1, trypsin; assay: Enzyme activity of immobilized trypsin, fluorescence of decomposed Bz-Arg-MCA substrate; type: biochemical; conditions: for Enzyme activity (fluorescence intensity): 0.1 mM Bz-Arg-MCA, 120 minutes
Experimental: Using the chip on which trypsin had been immobilized as described in (1) above, the enzyme activity of trypsin was measured. […] Specifically, a substrate specific to trypsin (benzoyl-L-arginine-4-methylcoumarin-7-amide (hereinafter referred to as Bz-Arg-MCA); Peptide Institute, Inc.) was allowed to react with trypsin, and fluorescence in the decomposed product was measured.
The 10 mM phosphate buffer contained in the measurement chip was removed, and 0.1 mM Bz-Arg-MCA was then added thereto. The reaction was then carried out for 120 minutes.
Fluorescence measurement was carried out regarding fluorescence for each of the aforementioned reaction times, using the BMGLabTechnologies FLUOstar measurement device (excitation: 380 nm; and emission: 460 nm).

Molecule	Compound binding amount (RU) ([1]; Experiment No. 1: trypsin immobilized in phosphate buffer (pH 7.4), 10 mg/ml, 1 hr, secondary washing phosphate buffer (pH 7.4))	Compound binding amount (RU) ([1]; Experiment No. 2: trypsin immobilized in phosphate buffer (pH 7.4), 2 mg/ml, 1 hr, secondary washing phosphate buffer (pH 7.4))	Compound binding amount (RU) ([1]; Experiment No. 3: trypsin immobilized in phosphate buffer (pH 7.4), 2 mg/ml, 1 hr, secondary washing 10 mM NaOH)	Compound binding amount (RU) ([1]; Experiment No. 4: trypsin immobilized in acetate buffer (pH 5.0), 0.1 mg/ml, 0.2 hr, secondary washing phosphate buffer (pH 7.4))	Binding to the surface, in words ([1]; surface of experiment No. 2)	Activity value (enzyme activity/immobilized amount) ([2]; Experiment No. 1)	Enzyme activity (fluorescence intensity) ([2]; Experiment No. 1: phosphate buffer (pH 7.4), 10 mg/ml, 1 hr, washing phosphate buffer (pH 7.4))	Activity value (enzyme activity/immobilized amount) ([2]; Experiment No. 2)	Enzyme activity (fluorescence intensity) ([2]; Experiment No. 2: phosphate buffer (pH 7.4), 2 mg/ml, 1 hr, washing phosphate buffer (pH 7.4))	Activity value (enzyme activity/immobilized amount) ([2]; Experiment No. 3)	Enzyme activity (fluorescence intensity) ([2]; Experiment No. 3: phosphate buffer (pH 7.4), 2 mg/ml, 1 hr, washing 10 mM NaOH)	Activity value (enzyme activity/immobilized amount) ([2]; Experiment No. 4)	Enzyme activity (fluorescence intensity) ([2]; Experiment No. 4: acetate buffer (pH 5.0), 0.1 mg/ml, 0.2 hr, washing phosphate buffer (pH 7.4))
CC(=O)N[C@@H](CC(C)C)C(=O)N[C@@H](CC(C)C)C(=O)N[C@H](C=O)CCCNC(=N)N [Leupeptin, leupeptin]	25	19	8	16	binds to the surface								
Trypsin						0.055	230	0.238	615	0.160	370	0.008	40
